This is an account of results in US20090110678A1 (Eli Lilly, published 2009).

The target in test [1] is T1, Human PDGFRα extracellular domain (ECD) (human, UniProt P16234 24-528).
T1 construct: extracellular domain; Bought reagent; also called PDGFRa ECD; PDGFRα ECD
Description: solid-phase blocking of [125I]PDGF-BB binding to immobilized PDGFRα ECD; [125I]PDGF-BB as ligand, solid phase.

The target of test [2] is T1, Human PDGFRα extracellular domain (ECD). Description: direct binding ELISA on immobilized PDGFRα ECD (ED50, 50% maximum binding). (An ELISA detects its analyte on a solid surface through an enzyme-linked reagent.)
For test [3] the target is unchanged. Put plainly: solid-phase blocking assay: inhibition of [125I]PDGF-AA binding to immobilized PDGFRα ECD.
Test [4] shares this target. Description: solid-phase blocking of iodinated PDGF binding to immobilized PDGFRα ECD; the table does not name the ligand, [125I]PDGF-AA by the legend of FIG. 13B; solid-phase PDGF blocking; ligand not named in Table 6.
Test [5] deals with T2, PDGFRα expressed on cells (PAE Rα, PC3-ML, SKLMS-1, U118) (human, UniProt P16234 24-1089). Description: cell-based or functional assay.
T2 sequence (P16234 24-1089): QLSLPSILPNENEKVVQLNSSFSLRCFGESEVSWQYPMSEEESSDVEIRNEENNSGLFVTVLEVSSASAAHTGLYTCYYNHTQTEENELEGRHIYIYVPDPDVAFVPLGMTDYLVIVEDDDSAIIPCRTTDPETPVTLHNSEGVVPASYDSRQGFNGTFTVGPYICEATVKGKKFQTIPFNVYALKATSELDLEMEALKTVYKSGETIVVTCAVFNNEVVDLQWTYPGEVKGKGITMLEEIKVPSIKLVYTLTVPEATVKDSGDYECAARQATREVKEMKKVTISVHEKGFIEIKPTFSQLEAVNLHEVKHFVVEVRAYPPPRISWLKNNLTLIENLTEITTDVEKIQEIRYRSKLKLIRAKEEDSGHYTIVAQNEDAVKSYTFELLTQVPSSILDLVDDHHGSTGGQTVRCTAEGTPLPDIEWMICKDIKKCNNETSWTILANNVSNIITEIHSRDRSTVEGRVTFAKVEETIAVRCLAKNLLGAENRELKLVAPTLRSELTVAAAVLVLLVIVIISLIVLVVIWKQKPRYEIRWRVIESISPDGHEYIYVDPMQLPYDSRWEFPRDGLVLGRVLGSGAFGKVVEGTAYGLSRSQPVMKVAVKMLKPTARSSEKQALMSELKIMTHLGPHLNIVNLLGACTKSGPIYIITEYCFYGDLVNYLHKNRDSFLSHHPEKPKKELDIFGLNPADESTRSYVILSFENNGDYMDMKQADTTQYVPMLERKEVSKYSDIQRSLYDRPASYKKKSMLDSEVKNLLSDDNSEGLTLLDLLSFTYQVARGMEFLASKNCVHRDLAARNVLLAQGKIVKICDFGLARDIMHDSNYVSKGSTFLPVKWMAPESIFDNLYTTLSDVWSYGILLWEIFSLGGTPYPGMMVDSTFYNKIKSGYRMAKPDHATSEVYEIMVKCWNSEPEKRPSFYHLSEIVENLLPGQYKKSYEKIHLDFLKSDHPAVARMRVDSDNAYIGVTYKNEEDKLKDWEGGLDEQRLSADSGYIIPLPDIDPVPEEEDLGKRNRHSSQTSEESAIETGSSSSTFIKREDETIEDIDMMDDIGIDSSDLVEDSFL
In test [6] the target is T2, PDGFRα expressed on cells (PAE Rα, …). Put plainly: cell-based PDGF blocking assay (Heldin et al. 1988); cells and PDGF isoform not named; cell-based PDGF blocking; cells and isoform not named.
Test [7] has as its target T1, Human PDGFRα extracellular domain (ECD). Put plainly: SPR, BIAcore 3000, PDGFRα ECD immobilized, antibody injected; Koff/Kon. As for the experimental part: (§1) The kinetics of antibody binding to PDGFRα was measured using a BIAcore 3000 instrument (BIAcore, Inc., Piscataway, N.J.). PDGFRα ECD was immobilized onto a sensor chip and antibody was injected at various concentrations. Sensograms were obtained at each concentration and evaluated using the BIA Evaluation 2.0 program to determine the rate constants. The affinity constant, Kd, was calculated from the ratio of rate constants Koff/Kₒₙ.
In general terms: In SPR one partner is held on a chip, and binding of the other changes the refractive index at the surface.

The target is the same in test [8]. Description: SPR, BIAcore 3000, PDGFRα ECD immobilized, antibody injected. As for the experimental part:
as §1

T1 sequence (P16234 24-528): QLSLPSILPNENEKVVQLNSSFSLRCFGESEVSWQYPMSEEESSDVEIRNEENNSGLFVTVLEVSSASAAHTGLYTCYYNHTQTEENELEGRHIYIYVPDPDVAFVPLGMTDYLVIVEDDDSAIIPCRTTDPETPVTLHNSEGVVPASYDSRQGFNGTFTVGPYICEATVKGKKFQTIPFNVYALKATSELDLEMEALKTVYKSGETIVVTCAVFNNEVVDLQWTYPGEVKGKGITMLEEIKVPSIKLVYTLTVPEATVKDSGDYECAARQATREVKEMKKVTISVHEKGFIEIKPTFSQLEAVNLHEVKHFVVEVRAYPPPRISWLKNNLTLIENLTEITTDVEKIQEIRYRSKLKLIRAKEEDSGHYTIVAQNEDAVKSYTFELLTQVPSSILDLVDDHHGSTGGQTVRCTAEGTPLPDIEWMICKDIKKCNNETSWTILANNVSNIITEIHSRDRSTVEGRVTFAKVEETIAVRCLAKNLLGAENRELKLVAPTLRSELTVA

B1: IMC-3G3, human anti-PDGFRα monoclonal antibody (antibody, human IgG1, V domains shown)
VH: QLQLQESGPGLVKPSETLSLTCTVSGGSINSSSYYWGWLRQSPGKGLEWIGSFFYTGSTYYNPSLRSRLTISVDTSKNQFSLMLSSVTAADTAVYYCARQSTYYYGSGNYYGWFDRWDQGTLVTVSS
VL: EIVLTQSPATLSLSPGERATLSCRASQSVSSYLAWYQQKPGQAPRLLIYDASNRATGIPARFSGSGSGTDFTLTISSLEPEDFAVYYCQQRSNWPPAFGQGTKVEIK
notes: also called EMC-3G3; anti-PDGFRα antibody
Usually IC50 stands for the concentration at which inhibition is half-maximal. A higher IC50 goes with a need for much substance. One may read the EC50 as the concentration needed to bring the measured effect to its halfway point. A low value points to a more potent agent. The Kd is a measure of binding affinity in units of concentration. Higher therefore signals lower affinity. As a reminder, the koff is the rate constant with which the complex falls apart. Read a low koff as slow dissociation. Regarding B1, the IC50 came to 0.43 nM in test [1], 0.24 nM in test [4] and 0.58 nM in test [6]. This molecule also returned an EC50 in test [2] of 0.06 nM. Further, the “IC50 (read off the curve)” value in test [3] was around 0.3 nM. Besides, the “EC50, inhibition of PDGF-AA-induced thymidine incorporation in U118 cells” value in test [5] is 3.4 nM. In test [7], this molecule displayed a Kd of 0.04 nM. In test [8], this molecule gave a koff of 4.7e-05 s⁻¹.

B2: PDGF-BB (ligand, UniProt P01127 82-190, looked up)
chain: SLGSLTIAEPAMIAECKTRTEVFEISRRLIDRTNANFLVWPPCVEVQRCSGCCNNRNVQCRPTQVQLRPVQVRKIEIVRKKPIFKKATVTLEDHLACKCETVAAARPVT
modifications: 125I label in the blocking assay
Regarding B2, the “PDGFRα tyrosine phosphorylation in PAE Rα cells” value in test [5] was ~5 fold (at 3 nmol/L).
